From PMC2649695 (Circulation research, 2009)

Target: T1, GST-MBS 683-866 (UniProt O14974 683-866)
T1 sequence (looked up): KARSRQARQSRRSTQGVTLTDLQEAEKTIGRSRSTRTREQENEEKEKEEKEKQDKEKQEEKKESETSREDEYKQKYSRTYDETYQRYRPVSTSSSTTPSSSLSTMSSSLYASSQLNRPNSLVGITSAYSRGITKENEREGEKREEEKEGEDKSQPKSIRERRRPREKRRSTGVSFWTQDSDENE
Assay: pull-down

B1: Myc-tagged ROCK2 (natural protein, UniProt O75116 1-1388, looked up)
chain: MSRPPPTGKMPGAPETAPGDGAGASRQRKLEALIRDPRSPINVESLLDGLNSLVLDLDFPALRKNKNIDNFLNRYEKIVKKIRGLQMKAEDYDVVKVIGRGAFGEVQLVRHKASQKVYAMKLLSKFEMIKRSDSAFFWEERDIMAFANSPWVVQLFYAFQDDRYLYMVMEYMPGGDLVNLMSNYDVPEKWAKFYTAEVVLALDAIHSMGLIHRDVKPDNMLLDKHGHLKLADFGTCMKMDETGMVHCDTAVGTPDYISPEVLKSQGGDGFYGRECDWWSVGVFLYEMLVGDTPFYADSLVGTYSKIMDHKNSLCFPEDAEISKHAKNLICAFLTDREVRLGRNGVEEIRQHPFFKNDQWHWDNIRETAAPVVPELSSDIDSSNFDDIEDDKGDVETFPIPKAFVGNQLPFIGFTYYRENLLLSDSPSCRETDSIQSRKNEESQEIQKKLYTLEEHLSNEMQAKEELEQKCKSVNTRLEKTAKELEEEITLRKSVESALRQLEREKALLQHKNAEYQRKADHEADKKRNLENDVNSLKDQLEDLKKRNQNSQISTEKVNQLQRQLDETNALLRTESDTAARLRKTQAESSKQIQQLESNNRDLQDKNCLLETAKLKLEKEFINLQSALESERRDRTHGSEIINDLQGRICGLEEDLKNGKILLAKVELEKRQLQERFTDLEKEKSNMEIDMTYQLKVIQQSLEQEEAEHKATKARLADKNKIYESIEEAKSEAMKEMEKKLLEERTLKQKVENLLLEAEKRCSLLDCDLKQSQQKINELLKQKDVLNEDVRNLTLKIEQETQKRCLTQNDLKMQTQQVNTLKMSEKQLKQENNHLMEMKMNLEKQNAELRKERQDADGQMKELQDQLEAEQYFSTLYKTQVRELKEECEEKTKLGKELQQKKQELQDERDSLAAQLEITLTKADSEQLARSIAEEQYSDLEKEKIMKELEIKEMMARHKQELTEKDATIASLEETNRTLTSDVANLANEKEELNNKLKDVQEQLSRLKDEEISAAAIKAQFEKQLLTERTLKTQAVNKLAEIMNRKEPVKRGNDTDVRRKEKENRKLHMELKSEREKLTQQMIKYQKELNEMQAQIAEESQIRIELQMTLDSKDSDIEQLRSQLQALHIGLDSSSIGSGPGDAEADDGFPESRLEGWLSLPVRNNTKKFGWVKKYVIVSSKKILFYDSEQDKEQSNPYMVLDIDKLFHVRPVTQTDVYRADAKEIPRIFQILYANEGESKKEQEFPVEPVGEKSNYICHKGHEFIPTLYHFPTNCEACMKPLWHMFKPPPALECRRCHIKCHKDHMDKKEEIIAPCKVYYDISTAKNLLLLANSTEEQQKWVSRLVKKIPKKPPAPDPFARSSPRTSMKIQQNQSIRRPSRQLAPNKPS
  fold bound relative to mycROCK1: 2 fold
